In publication PMC9359175:

Assays:
[1] = biological target: 5HB-H2 (SARS-CoV-2 5-helix bundle, optimal construct) (SARS-CoV-2) (UniProt P0DTC2); assay: BLI; pH 5
[2] = biological target: 5HB-H2 (SARS-CoV-2 5-helix bundle, optimal construct) (SARS-CoV-2) (UniProt P0DTC2); assay: BLI; pH 4.5
[3] = biological target: 5HB-H2 (SARS-CoV-2 5-helix bundle, optimal construct) (SARS-CoV-2) (UniProt P0DTC2); assay: crystal structure
[4] = biological target: 5HB-H2 (SARS-CoV-2 5-helix bundle, optimal construct) (SARS-CoV-2) (UniProt P0DTC2); assay: ITC; […]; 298 K; 20 mM HEPES pH 7.5, 150 mM NaCl; […]
[5] = biological target: 5HB-H2 (SARS-CoV-2 5-helix bundle, optimal construct) (SARS-CoV-2) (UniProt P0DTC2); assay: BLI; […]; 20 mM MES pH 5.5, 150 mM NaCl, 0.05% Tween 20, 298 K; 1:1 model
[6] = biological target: 5HB-H2 (SARS-CoV-2 5-helix bundle, optimal construct) (SARS-CoV-2) (UniProt P0DTC2); assay: BLI; […]; 20 mM MES pH 6.0, 150 mM NaCl, 0.05% Tween 20, 298 K; 1:1 model
[7] = biological target: 5HB-H2 (SARS-CoV-2 5-helix bundle, optimal construct) (SARS-CoV-2) (UniProt P0DTC2); assay: BLI; […]; 20 mM HEPES pH 7.5, 150 mM NaCl, 0.05% Tween 20, 298 K; 1:1 model

Substance: HR2P, 36-mer peptide derived from SARS-CoV-2 S HR2 (D1168-L1203)
- Kd [1]: 2.43 nM
- Kd [2]: 1.37 nM
- stoichiometry N [3]: 1
- Kd [4]: 5.12 nM
- Kd [5]: 3.08 nM
- Kd [6]: 3.22 nM
- Kd [7]: 4.91 nM
